US9663815B2, “Cytosolically-active peroxidases as reporters for microscopy” (Massachusetts Institute of Technology, priority 2011, dated 2017)

B1: wt APX: pea cytosolic ascorbate peroxidase (Pisum sativum), wild type, about 28 kD, dimeric (protein, listed as Pisum sativum)
chain: MGKSYPTVSPDYQKAIEKAKRKLRGFIAEKKCAPLILRLAWHSAGTFDSKTKTGGPFGTIKHQAELAHGANNGLDIAVRLLEPIKEQFPIVSYADFYQLAGVVAVEITGGPEVPFHPGREDKPEPPPEGRLPDATKGSDHLRDVFGKAMGLSDQDIVALSGGHTIGAAHKERSGFEGPWTSNPLIFDNSYFTELLTGEKDGLLQLPSDKALLTDSVFRPLVEKYAADEDVFFADYAEAHLKLSELGFAEA
B2: mAPX: double mutant K14D/E112K of pea APX (SEQ ID NO:1), monomeric (protein, listed as Pisum sativum)
chain: MGKSYPTVSPDYQDAIEKAKRKLRGFIAEKKCAPLILRLAWHSAGTFDSKTKTGGPFGTIKHQAELAHGANNGLDIAVRLLEPIKEQFPIVSYADFYQLAGVVAVEITGGPKVPFHPGREDKPEPPPEGRLPDATKGSDHLRDVFGKAMGLSDQDIVALSGGHTIGAAHKERSGFEGPWTSNPLIFDNSYFTELLTGEKDGLLQLPSDKALLTDSVFRPLVEKYAADEDVFFADYAEAHLKLSELGFAEA

Tests used:
[1] = system: HEK cells; experiment: DAB staining of transfected cells (brightfield); format: cell-based; conditions: for DAB staining activity in mitochondrial matrix: mitochondrial matrix-targeted constructs, HEK cells
Experimental: Next, the activity of wt APX and mAPX was compared in mammalian cells.
To generate a monomeric APX with improved activity, the two mAPX mutations (K14D/E112K) were added to each of the activity-enhanced mutants. […] The sextuple mutant (K14D, E112K, W41F, D133A, T135F, K136F=mAPX−FFAF), was compared to mAPX+W41F within cells. HEK cells were transfected with constructs targeted to the mitochondrial matrix (Table 3), while COS-7 cells were transfected with constructs fused to the C-terminus of connexin 43 (Table 3). After fixation, the cells were treated with DAB and H2O2 to generate DAB polymer. […] After fixation, cells were stained with anti-Flag (for matrix) or anti-myc (for connexin) antibody to visualize peroxidase expression levels. […] Therefore mAPX+W41F (K14D/E112K/W41F) was selected, denoted as “APEX” (for Enhanced APX), as the optimized reporter for subsequent experiments.
A solution of 4% formaldehyde (freshly depolymerized from paraformaldehyde) with 2% glutaraldehyde in 10 mM phosphate buffered saline (PBS) was added to cells 24 hours after transfection. Cells were treated for 3 min at room temperature, then 30 min on ice. Cells were then washed 5×2 min using ice cold 10 mM PBS. Cells were blocked with 20 mM glycine for 5 min on ice. Cells were then washed 5×2 min with ice-cold 10 mM PBS. Cells were then treated with an ice-cold solution of DAB (0.5 mg/mL) and H2O2 (0.03%) in 10 mM PBS for 20 min. Cells were then washed 5×2 min with ice-cold 10 mM PBS. Cells were treated with 2% OsO4 in ice-cold 10 mM PBS for 30 min, then washed 5×2 min with ice-cold distilled deionized water. Cells were then placed under ice-cold 2% aqueous uranyl acetate for 24 hours.
Any cell displaying detectable GFP fluorescence was considered transfected. Contact sites between neighboring transfected cells were identified using DIC imaging. Gap junctions were identified as lines of GFP fluorescence unambiguously overlaying with the plasma membrane of two transfected cells based on DIC. DAB stain intensity for APX-NES variants was analyzed using SlideBook. Transfected cells were identified by nuclear YFP fluorescence. In each transfected cell, a representative DAB-stained region was encircled, and its average brightfield intensity was calculated. Background intensity, determined for each field of view by encircling a representative region in the cytosol of an untransfected cell, was subtracted out. The bar graph in FIG. 2c represents mean data from >60 transfected cells.

[2] = Guaiacol activity assay (Michaelis-Menten kinetics); format: biochemical; conditions: guaiacol as substrate, purified enzyme
Experimental: Data points represent the mean±standard deviation of 2-3 independent measurements. Initial rates are shown as a function of guaiacol concentration. H2O2 concentration was 90 μM, and enzyme concentration was 20 nM in all trials. Oxidation to tetraguaiacol was monitored by absorbance at 470 nm (ε470=22×10^3 M^−1 cm^−1)^2.
High activity toward guaiacol generally correlated well with robust polymerization of DAB in vitro. Guaiacol assays were performed on a Nanodrop 2000c UV-vis spectrophotometer (Thermo Scientific) using its cuvette reader. HRP (Sigma) was prepared as a 10 μM stock in PBS, flash frozen and stored at −80° C., and thawed immediately before use. Guaiacol peroxidase activity was measured according to the protocol of Lad et. al.^35 Oxidation to tetraguaiacol was monitored by absorbance at 470 nm (ε470=22×10^3 M^−1 cm^−1). Kcat and KM were calculated by nonlinear regression fitting to the Michaelis-Menten equation using OriginPro (OriginLab Corporation). All values are reported as the mean±standard deviation for 2-3 independent Michaelis-Menten fittings, with each fitting using at least 5 values of substrate concentration ranging between 0.25 and 30 mM.
In order to improve the performance of mAPX in mammalian cells, monomeric APX was engineered with improved activity toward DAB in the hope that faster kinetics could compensate for diminished heme binding. The substrate binding site of APX was compared to that of HRP, which has faster kinetics and broader aromatic substrate tolerance (Henriksen, et. al., Journal of Biological Chemistry 274, 35005-35011 (1999)). In order to make APX more HRP-like, seven mutants of APX were designed that incorporated mostly aromatic residues into the active site (FIG. 5a). A colorimetric assay was employed using guaiacol, a prototypical aromatic peroxidase substrate, to determine Michaelis-Menten parameters (Kumar, et. al., Journal of Cell Science 108, 3725-3734 (1995); Henriksen, et. al., Journal of Biological Chemistry 274, 35005-35011 (1999)) (FIG. 5b and FIG. 10). […]

Row | Molecule | DAB staining activity in mitochondrial matrix [1] | activity in vitro (guaiacol) [2] | activity toward DAB (DAB stain) ([1]; expressed throughout the cytosol via NES fusion)
1 | B1 | comparably active | equally active | 
2 | B2 | comparably active | equally active | less active than wt APX
